Results: paper PMC6981440 (International Journal of Molecular Sciences, 2019)

Columns and labels:
[1] = biological target: mouse anti-GM1 IgG2b(κ) antibody GB2 (mouse); experiment: high-speed atomic force microscopy; antibody at 10 μg/mL in phosphate-buffered saline, 3 min on a mica-supported DOPC bilayer with GM1 (rings at >25% GM1; 50% GM1 in Figure 4), unbound antibody washed off; room temperature
[2] = biological target: the molecule itself; experiment: crystal structure; apo Fc of GB2; 16% PEG3350, 0.2 M lithium chloride, 0.1 M Bis-Tris pH 6.5, 20 °C; P2(1)2(1)2(1), three Fc dimers per asymmetric unit, 2.30 Å

Molecule | stoichiometry N [1] | stoichiometry N [2]
mouse anti-GM1 IgG2b(κ) antibody GB2 | 6 | 
Fc fragment of GB2 (mouse IgG2b-Fc, apo form) (domain or fragment, Fc fragment of the mouse IgG2b heavy chain of GB2, cut by papain; Fc dimer; three Fc dimers per asymmetric unit in the crystal; also called apo Fc; source: papain digestion of GB2 from mouse hybridoma, purified (Affi-gel protein A column)) CPAPNLEGGPSVFIFPPNIKDVLMISLTPKVTCVVVDVSEDDPDVQISWFVNNVEVHTAQTQTHREDYNSTIRVVSTLPIQHQDWMSGKEFKCKVNNKDLPSPIERTISKIKGLVRAPQVYILPPPAEQLSRKDVSLTCLVVGFNPGDISVEWTSNGHTEENYKDTAPVLDSDGSYFIYSKLNMKTSKWEKTDSFSCNVRHEGLKNYYLKKTISRSPG |  | 3
